Residue numbers refer to the chain shown, from its start. Names may count otherwise. Each block holds one binder with its values, some of them ahead of it. Where no end group is shown, it is not given here.
Assays:
[1] = molecular target: Lactate dehydrogenase A (LDHA), endogenous (human, UniProt P00338 2-332); assay: anti-FLAG IP from HEK293, immunoblot for LDHA
recombinant LDHA = recombinant LDHA (human, UniProt P00338 1-332); assay: fluorescence anisotropy, labelled peptide with recombinant LDHA
Method: Fluorescence anisotropy was measured in triplicate using a SpectraMax i3 equipped with rhodamine fluorescence polarization module (lex\lem.535 nm/595 nm). Curve fitting was done in KaleidaGraph 4.0.

B1: FLCN P228A mutant (FLAG-tagged) (other)
chain: MNAIVALCHFCELHGPRTLFCTEVLHAPLPQGDGNEDSPGQGEQAEEEEGGIQMNSRMRAHSPAEGASVESSSPGPKKSDMCEGCRSLAAGHPGYISHDKETSIKYVSHQHPSHPQLFSIVRQACVRSLSCEVCPGREGPIFFGDEQHGFVFSHTFFIKDSLARGFQRWYSIITIMMDRIYLINSWPFLLGKVRGIIDELQGKALKVFEAEQFGCPQRAQRMNTAFTAFLHQRNGNAARSLTSLTSDDNLWACLHTSFAWLLKACGSRLTEKLLEGAPTEDTLVQMEKLADLEEESESWDNSEAEEEEKAPVLPESTEGRELTQGPAESSSLSGCGSWQPRKLPVFKSLRHMRQVLGAPSFRMLAWHVLMGNQVIWKSRDVDLVQSAFEVLRTMLPVGCVRIIPYSSQYEEAYRCNFLGLSPHVQIPPHVLSSEFAVIVEVHAAARSTLHPVGCEDDQSLSKYEFVVTSGSPVAADRVGPTILNKIEAALTNQNLSVDVVDQCLVCLKEEWMNKVKVLFKFTKVDSRPKEDTQKLLSILGASEEDNVKLLKFWMTGLSKTYKSHLMSTVRSPTASESRN
notes: Full FLCN protein with a point mutation in the FLCN-10 region, expressed in HEK293 cells; not shown: FLAG tag (immunoprecipitated using anti-FLAG agarose)
binding result [1]: no binding

B3: FLCN-M222A-FLAG (other)
chain: B1 chain with M222A, A228P
notes: Expressed in HEK293, UOK257 and ccRCC cells; also called M222A mutant; not shown: FLAG tag
binding result [1]: binds

B4: FLCN R221A mutant (FLAG-tagged) (other)
chain: B1 chain with R221A, A228P
notes: as for B1
binding result [1]: no binding

Second part, the binder after the results:

binding result [1]: no binding
B2: FLCN-F226A-FLAG (other)
chain: B1 chain with F226A, A228P
notes: Expressed in HEK293 and UOK257 cells; not shown: FLAG tag

binding result (recombinant LDHA): binds
B5: FLCN-10-Rhodamine B (peptide)
peptide: AQRMNTAFTP
modifications: also: Rhodamine B label, site not given here
notes: Labelled form used for fluorescence anisotropy and for the ex vivo tissue treatment; also called FLCN-10-Rhod-B; Rhodamine-B-labeled FLCN-10

— patent US20200407397A1 (RESEARCH FOUNDATION FOR THE STATE UNIVERSITY OF NEW YORK, published 2020)
